Laboratory results published in the DeepSol protein solubility set.

experiment: soluble on expression in E. coli; label from the status in PepcDB or PDB records

**Q.** Which “soluble on expression in E. coli” value does the source give for “MKTSSYLLKAGVDYPTNWDEFVDWFHDEQSCTSYLYALRWPNGFICPSCSSHQSPYQLSNGKLKCHACRFQCSVTSSTLFDKTRTPMKSWFAAVWFITNQKNGVSALGVQRLLGLGSYQTAWSLMHKLRYAMVDPERDKLSGIVEVDETLIGGVIPKSSIKNQQGKRKAIVLVAVELLSPSGFGRIRLRQVESATKEHIHQFIQDVIEPGSTICSDGSQAYKQIDKKGYKHNRMVHLGSSVPAHETMAGVHRVSSLCKRWLLGTYQGAVKAKQLDYYLDEFTFRFNRRKSDSRGLLFYRLLEQAVRLEHHHHHH” here?
**A.** soluble

**Q.** For “MSLDYTYADDSLTLHTDMYQINMMQTYWELGRADLHAVFECYFREMPFNHGYAIFAGLERLVNYLENLTFTESDIAYLREVEEYPEDFLTYLANFEFKCTVRSALEGDLVFNNEPLIQIEGPLAQCQLVETALLNMVNFQTLIATKAARIKSVIGDDPLLEFGTRRAQELDAAIWGTRAAYIGGADATSNVRAGKIFGIPVSGTHAHSLVQSYGNDYEAFMAYAKTHRDCVFLVDTYDTLKAGVPSAIRVAREMGDKINFLGVRIDSGDMAYISKRVREQLDEAGFTEAKIYASNDLDENTILNLKMQKSKIDVWGVGTKLITAYDQPALGAVFKLVSIEGEDGQMKDTIKLSSNAEKVTTPGKKQVWRITRKSDKKSEGDYVTLWNEDPRQEEEIYMFHPVHTFINKYVRDFEARPVLQDIFVEGKRVYELPTLDEIKQYAKENLDSLWEEYKRDLNPQKYPVDLSTDCWNHKMNLLEKVRKDVKHLTETVNKEAEGHHHHHH”, which “soluble on expression in E. coli” value is on record?
**A.** soluble

**Q.** Which “soluble on expression in E. coli” value does the source give for “MKYTLDQLNVYNPDGKAKSISIIHGLTISTSNTNSDTTGLTGCLYLTTKNQANDPSFSVYVIKQAQTVSTTQPNSTVVILNTELNPDISNYDQPLKTSYVTNINQSPDSDLFFQWDIPASGWTQKDVTNQFFENPIILETFDWNTMKKNFTRQFFDHIEPLQIGVKYWYFTASKPVSMTMESKYVSNLMYTATSVNTTGLIVNDFVFLEHVVNFPLDLTRVRTIGTLISAFPESSTINFVYKDDQSSSRQSFSTEQTHSLFDTYMQASSLTINATALIPGRFFCQYFGVTGDLLPPGTSTPSTPSTVETTMPSTTRISTTPSAAPHEFQLICFIIAFLLVL” here?
**A.** not soluble

**Q.** For “MDSEAVSSDSHVAAAIATRRRSNSVSDDYSVQRTNDDATQCKYFATQKGYWKDEFISRFANSSSNVSEARRFPEISMGYWARTAAIEKYVRDFLNEFDGNAQVVSLGCGFDTLFWRLVSSGAKLVKYVEVDFSSVTSKKIRHILKPIGPNSVDLKKSFESDAVVSHHADLHAGNYHLIGADLRQANELDQKLATCQLSHDIPTIFIAECVLVYMSADSSTALLKQIVSQFKQPAFVNYEQFRTSDAFTKVMEQNLGDRGIQLHGLEMCESAEKQEERFRNAGFKEVKVMDMNQIFNNFLDQKEVSRIREIEMLDEMELLQQLFAHYCVVSARI”, which “soluble on expression in E. coli” value is on record?
**A.** not soluble

**Q.** For “LLLNLFNFRNFKDLFRNDINMMTVEEILYNEIKEFQASDRRAWMVIGDRYYRCENDILNRRIVRHTESGDIEDRSKANNRLAHGFVKNLVDEKIGYLLTKDYSLKCDNKEYIEKVKNVLGKYFQYTLTRLGYEASNKGIAWLQVYINEQGKFGMMIIPAEQCVPLWKDNTHTELYGMIRYYVQTVYEGKEKKQITRVEYYTDKEVYFYVLDNDHLIPDIEQYEGGPILHYKKGEEGRSWGKVPFIAWKNNHLEYPDVKFIKSLVDAYDKSRSEIDNFIEETKNLIYVLKGYGGENLSDFMKDLNYYRAIKIDDPEHGGVDTLTPKIDIQAAKEHFEQLKRDINEFGQGVPKDLDKYGNSPSGTALKFLYSGLDLKCNHLEVEFRQSFNQLLYFVNRYLAENGQGNYENENVELIFNRDIQINETETINNCVNSKGIISDETILANHPWVSDVEEELKQIEKERKSEEPPMFGEGDEE”, which “soluble on expression in E. coli” value is on record?
**A.** soluble

**Q.** For “MSLKSHKLLYQLKNKLTWLPILILAACQNNIIYHSYAPVPLDGWDKSDTLVYTLPNSIPAGNYEAEIGIRYQESYPYRDIWLEVSHNTKDTLTYVTDTLQLFLVDEAGNKTGNGLCGLYQCDLPYKASIPIRTEGSARTFRIVHIMTDNPLTGISDIGIRLRKPENEGHHHHHH”, which “soluble on expression in E. coli” value is on record?
**A.** not soluble

**Q.** With “MGSDKIHHHHHHMRLYTRTGDKGKTSVIGGRLAKDDTRVVAYGTTDELNSFVGSAITQLDENTFADIRGELFKIQHELFDCGGDLAMLKVKEDRPYKAKQEIVDFLEQRIDAYIKEAPELERFILPGGSEAAASLHVCRTIARRAERYVVRLQQEGEINPIVLKYLNRLSDYFFAVARVVNSRLQVPDVEYERSAIVFREGKRKEDKK” as the sequence, how does the “soluble on expression in E. coli” value read?
**A.** soluble

**Q.** With “MDYRVLLYYKYVTIDDPETFAAEHLKFCKEHHLKGRILVSTEGINGTLSGTKEDTDKYIEHMHADNRFADLTFKIDEAESHAFKKMHVRPRREIVALDLEEDINPREITGKYYSPKEFKAALEDENTVILDARNDYEYDLGHFRGAIRPDITRFRDLPEWVRNNKEQLDGKNIVTYCTGGIRCEKFSGWLVKEGFENVGQLHGGIATYGKDPETKGQYWDGKMYVFDERISVDVNQIDKTVIGKEHFDGTPCERYINCANPECNKQILVSEENEEKYLGACSYDCAKHERNRYVARHHISNEEWQRRLNNFKDVPEHTHALEHHHHHH” as the sequence, how does the “soluble on expression in E. coli” value read?
**A.** soluble

**Q.** For “MCGIIGFMSRTGRLISGDRIATALNCLKERGNGEGSGYVGYGIYPDYKDDYAIHVFLDATKDYDRIRHEVEEVLVKYGYILKDEEIPTEEGIIKQEQVSWRFFYRFDEKYKTVEEDLMVDIVMDINAKIDGAFVFSSGKNMGVFKAAAWPLEVAEYFKIDQYKGFQWLSHARYPTNTKGWWGGAHPFNLLGWSVVHNGEITSYGANKRYVESFGYKCKLLTDTEVVAYLFDLLIRKHKIPVEYAMSALAPRFWDEIEIMSEEDKKIHEAIRMTYGGATMNGPFGIVVGTQEGMVFMNGEVEEGNTMVGLTDRIKLRPLVAAEKDDLLFVSSEESAIRKICPELDRVWMPDAGRMVIAKLEKKI”, which “soluble on expression in E. coli” value is on record?
**A.** not soluble

**Q.** With “MGSDKIHHHHHHMSAPLDIDQLQTFVAIADTGSFTKAADRVFKTQSAVSMQMRRLEERIGKPLFMKDGRGNRLTVEGDRLLNFARRMIRLNNEAIASFDDNRLEGTLRIGTPDDYADRYMPEIIVRFAKTHPNVELYIICEPSVDLAEKMAKGDLDIALVTHNPRARASDVVRTEPLCWVSSINHPLPENAPIPLAVGRRDCQWRQAACAALDATGKEYQILFTSWSSTVVAAAVLAGMAVSVLPESALRPGMKVLTLADGFPSLAPVQIGIMKRPGLSPSLSNAITNHITACLDNITPITVNDDLEGDLKGYPRYPRLRQSHMLPGW” as the sequence, how does the “soluble on expression in E. coli” value read?
**A.** not soluble

**Q.** With “MAHHHHHHMDMLGAVVVENSNLTTTLPAPHTLHERPAEGFSPQRRVLLVPLTEAYEHTTGWMVPTEMEGAQLAMSLYVNDTPVSLPPNWQLSPAKEAAAVKTAMAVDITPLVLSIERDLFSLQVIFSGDVAEMEMWRGVIACVLVEEVELAQLGERIVSTYHKRRAPVIRRSPLSSCGERGVVAITEVSVKIQCPITTLTMEIPVRGMYCEHLQCMELAAVLIQCARQNVWNCPLCSAAMKPEDIIVNHRLKDWIASHSREVVAQVEYIVETELGRPLKIVYKAARPEQHSTIEVIDDEEK” as the sequence, how does the “soluble on expression in E. coli” value read?
**A.** not soluble

**Q.** For “MPYSSSGVGHNGFDKADLHIHTKCSDGLFTPEEIVHKAIHVGLKAISITDHDTVTGIDQAKPLALELGLELIPGVEMSSAYKGYDIHILGYFFDYQQSELKGYLDHCRLLRTERAERMVQKLAKMGVKIEIEQIIMKAQNGSVGRPHIAAVLQDEGFVKSFSEAFSKYLGSHSPAYVKSIETHPEEVIRLINEAGGLSFLAHPAQNVPDEILRQLISFGLDGLEIIHPSHDTYRQNYYREIANEYFLLFSGGSDYHGPKDHEDNFGQVWIPYEWVTKMKSRLAPAVKE”, which “soluble on expression in E. coli” value is on record?
**A.** not soluble

**Q.** With “MGSSHHHHHHSSGLVPRGSHMHSVVQSVTDRIIARSKASREAYLAALNDARNHGVHRSSLSCGNLAHGFAACNPDDKNALRQLTKANIGIITAFNDMLSAHQPYETYPDLLKKACQEVGSVAQVAGGVPAMCDGVTQGQPGMELSLLSREVIAMATAVGLSHNMFDGALLLGICDKIVPGLLIGALSFGHLPMLFVPAGPMKSGIPNKEKARIRQQFAQGKVDRAQLLEAEAQSYHSAGTCTFYGTANSNQLMLEVMGLQLPGSSFVNPDDPLREALNKMAAKQVCRLTELGTQYSPIGEVVNEKSIVNGIVALLATGGSTNLTMHIVAAARAAGIIVNWDDFSELSDAVPLLARVYPNGHADINHFHAAGGMAFLIKELLDAGLLHEDVNTVAGYGLRRYTQEPKLLDGELRWVDGPTVSLDTEVLTSVATPFQNNGGLKLLKGNLGRAVIKVSAVQPQHRVVEAPAVVIDDQNKLDALFKSGALDRDCVVVVKGQGPKANGMPELHKLTPLLGSLQDKGFKVALMTDGRMSGASGKVPAAIHLTPEAIDGGLIAKVQDGDLIRVDALTGELSLLVSDTELATRTATEIDLRHSRYGMGRELFGVLRSNLSSPETGARSTSAIDELY” as the sequence, how does the “soluble on expression in E. coli” value read?
**A.** soluble

**Q.** For “QHPAFMTEMPTDGKYQDTIEALQSMKYDKEDDEDKQMNAEHHKEEGNKHFKFKKYRWATDCYSNGIKENSPDRKLNAVLYFNRAAAQKHLGNLRSAIKDCSMGRKFDPTHLKGVIRGAECLLELEYAKDALNWIESSKKIFAFTKETSDTPDLTDDEKKFIDQLETLRVKSVELSLKEERDKRKSRAEERKETESKKQLLDALKERNLNLCPRVPFDRPELMDMARLTVSLPLMHSHECVKFDDDLNLVWPILLQYPEAGQTDVLTETNELTTVGELLKEVLNSPAQWDPEHKFNFENVRFFVSDEYDEYLMEVYEWNDFKSVLSMPGYQIKQGLPVIMIMTKEKAASSLEALAEDENRYVAK”, which “soluble on expression in E. coli” value is on record?
**A.** not soluble

**Q.** With “MKTHYRTIVLSDIHLGTSSSKAKEVSNFLKNHTCDTLLLNGDIIDGWQLQKYGKWKKSHTRFFRRVIKMTEQNKTKVYYLRGNHDDFLDTILPLSFGNIHIDREYIHQGATGKMYYVVHGDVFDTVTSQLKWIAKLGDVGYTFLLWLNKHYNNYRVKRGLPYYSLSQAVKQKVKTAVSYISDFEMQLADLARSRKCDGVICGHIHQPAIKEYNGIEYLNSGDWVETLSALVETIHGEWKLIYYNQAFDEDRDSTEDADDPLFVFENMARFSKDVTIYKPRYSAFNGMNPADNLATNNQ” as the sequence, how does the “soluble on expression in E. coli” value read?
**A.** not soluble

**Q.** For “MISNKNIFNRFQQWMDTFLMLELQWFLIYANVANQMIVYGCCQMSKKTSNETPKVFLMLGHFFVSLKYPGATETKNWSKKLPFHYFHKYV”, which “soluble on expression in E. coli” value is on record?
**A.** not soluble

**Q.** For “MTSMDNSARGQRHNEFADSAARIEAANDMSISAGRDVINKGSVLESGRDMSIQAGRDVTIAPTEVTNSLFSDSKHNSSDITQLGSTASAGRDLTVQAGRDISVIASQIDAKRDIAMAATENLTISSAADEEHSLSKSKKLTRQEDHVSQIAADLDAGGSVALQAGQNLAVISSRITAGKEAYLVAGDQLDILAAQDSDYSLYDKKKKGSFGAKKTKRDEITDVKNIGSEITTGGDLLLASGGDQKYQVAKLESGKDLTIDSGGAVTFEGVKDLHQESHEKSKSDLAWNSSKGKGNTDETLRQSELVAKGELAIRAVEGLKIDIKQVDQQSVSQTIDAMVKADPQLAWLKEAELRGDVDWRQVKEVHDSLIGTAVNAAVVAGLTSATSQAVISTVNNKGNLGAALKDVTSAESMKGYLVSGLAAGFAAGILDPAYGVSPENTAKATHGFDLGSVDGFTNYAGYTLAQGGFSAAANTAINGGSLTDNLAQAAISSAADAMSAGIYNKLGTKLEFSGLPSKLAAHALVGGLIAELAGGDFRSGALAAGANEAFVNLVGDKIFVGESHDKLLAMTSQLVGLTVAAAAGGTDKDQAVAGWVAQQATTFNYLEHSEKEAFIKEMLGCDTDKCAREKWEQGKFDEDSQANVQYANDIAGSQRARETRDRVLDSLGSILDMNCPTSACEGYKQLLMERSLGTLKNLNQVIKDWASVDQRLGLMAGAAVGGQANYKCGSTASRSAGVDLEHHHHHH”, which “soluble on expression in E. coli” value is on record?
**A.** soluble
